Fold increase in frequency of cytoplasmic IL-10+ adult blood B cells, 48 h culture against 5 h L+PIM culture and reduction of LPS-induced IL-10 secretion by spleen B cells, ELISA of culture supernatant data for 1 substance are collected here from US9669057.

In the test the target is mouse CD40 (mouse) (UniProt P27512). The test is described as follows: cell-based or functional assay.
Chain of UniProt P27512 (P27512 20-289): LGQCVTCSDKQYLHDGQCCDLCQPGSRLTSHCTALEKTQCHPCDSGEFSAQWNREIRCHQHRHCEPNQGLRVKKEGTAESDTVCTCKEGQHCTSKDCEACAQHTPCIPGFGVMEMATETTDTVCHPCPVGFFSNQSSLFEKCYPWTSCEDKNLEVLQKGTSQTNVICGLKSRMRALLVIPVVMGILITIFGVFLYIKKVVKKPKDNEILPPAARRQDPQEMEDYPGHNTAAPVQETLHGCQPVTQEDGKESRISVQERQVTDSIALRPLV

anti-mouse CD40 mAb (HM40-3) (antibody) gave a fold increase in frequency of cytoplasmic IL-10+ adult blood B cells, 48 h culture against 5 h L+PIM culture of 6 to 9 fold and a reduction of LPS-induced IL-10 secretion by spleen B cells, ELISA of culture supernatant of over 68%.
